Source: the Immune Epitope Database (IEDB)

Assays:
HLA-B*58:01 = assay: IEDB peptide-MHC binding, purified MHC/direct/fluorescence; filed as Kd, often an IC50 or EC50 that approximates it; ≥ and ≤ were set here for values at or beyond the usual limits of such assays
HLA-A*02:01 [1] = assay: as above
HLA-A*26:03 = assay: as above; settings: source organism: Variola virus
HLA-B*07:02 = assay: as above
HLA-A*69:01 = assay: as above
HLA-A*31:01 [2] = assay: as above
HLA-B*27:05 = assay: as above
HLA-B*18:01 = assay: as above
HLA-B*40:01 = assay: as above
HLA-B*57:01 [3] = assay: as above
HLA-B*44:02 = assay: as above; settings: source organism: Camelpox virus CMS
HLA-A*01:01 = assay: as above
HLA-A*11:01 [4] = assay: as above
HLA-B*48:01 = assay: as above
HLA-A*26:02 = assay: IEDB peptide-MHC binding, purified MHC/competitive/fluorescence; filed as Kd, often an IC50 or EC50 that approximates it; ≥ and ≤ were set here for values at or beyond the usual limits of such assays; settings: source organism: Vaccinia virus Tian Tan
HLA-A*68:02 [5] = assay: as above; settings: source organism: Vaccinia virus Tian Tan
HLA-B*15:17 [6] = assay: as above; settings: source organism: Vaccinia virus Tian Tan
HLA-B*08:02 = assay: IEDB peptide-MHC binding, purified MHC/direct/fluorescence; filed as Kd, often an IC50 or EC50 that approximates it; ≥ and ≤ were set here for values at or beyond the usual limits of such assays; settings: source organism: Vibrio cholerae V52
HLA-A*03:01 = assay: as above
HLA-B*15:17 [7] = assay: as above
HLA-B*15:01 = assay: as above
HLA-B*46:01 = assay: as above
HLA-B*51:01 = assay: as above; settings: source organism: Vibrio cholerae
HLA-B*15:09 = assay: IEDB peptide-MHC binding, purified MHC/competitive/fluorescence; filed as Kd, often an IC50 or EC50 that approximates it; ≥ and ≤ were set here for values at or beyond the usual limits of such assays; settings: source organism: Vibrio cholerae 2740-80
HLA-B*39:01 = assay: as above; settings: source organism: Vibrio cholerae 2740-80
HLA-B*15:02 = assay: IEDB peptide-MHC binding, purified MHC/direct/fluorescence; filed as Kd, often an IC50 or EC50 that approximates it; ≥ and ≤ were set here for values at or beyond the usual limits of such assays
HLA-A*68:02 [8] = assay: as above; settings: source organism: Marburg virus - Musoke, Kenya, 1980
HLA-B*08:01 = assay: as above
HLA-A*02:01 [9] = assay: IEDB peptide-MHC binding, purified MHC/competitive/fluorescence; filed as Kd, often an IC50 or EC50 that approximates it; ≥ and ≤ were set here for values at or beyond the usual limits of such assays; settings: source organism: Orthomarburgvirus marburgense
HLA-A*26:01 [10] = assay: as above; settings: source organism: Orthomarburgvirus marburgense
HLA-A*31:01 [11] = assay: as above; settings: source organism: Orthomarburgvirus marburgense
HLA-A*02:03 = assay: as above
HLA-A*11:01 [12] = assay: as above; settings: source organism: Orthomarburgvirus marburgense
HLA-A*30:01 = assay: as above; settings: source organism: Orthomarburgvirus marburgense
HLA-B*57:01 [13] = assay: IEDB peptide-MHC binding, purified MHC/competitive/fluorescence; ≥ and ≤ were set here for values at or beyond the usual limits of such assays; settings: source organism: Homo sapiens
HLA-A*30:02 = assay: IEDB peptide-MHC binding, purified MHC/competitive/radioactivity; filed as Kd, often an IC50 or EC50 that approximates it; ≥ and ≤ were set here for values at or beyond the usual limits of such assays; settings: source organism: Dengue virus 3 Martinique/1243/1999
HLA-B*73:01 = assay: IEDB peptide-MHC binding, purified MHC/competitive/fluorescence; filed as Kd, often an IC50 or EC50 that approximates it; ≥ and ≤ were set here for values at or beyond the usual limits of such assays; settings: source organism: Brucella abortus S19
HLA-A*26:01 [14] = assay: IEDB peptide-MHC binding, purified MHC/direct/fluorescence; filed as Kd, often an IC50 or EC50 that approximates it; ≥ and ≤ were set here for values at or beyond the usual limits of such assays; settings: source organism: Corynebacterium glutamicum
HLA-A*02:12 = assay: IEDB peptide-MHC binding, purified MHC/competitive/fluorescence; filed as Kd, often an IC50 or EC50 that approximates it; ≥ and ≤ were set here for values at or beyond the usual limits of such assays; settings: source organism: Corynebacterium glutamicum ATCC 13032
HLA-A*02:11 = assay: as above; settings: source organism: Corynebacterium glutamicum ATCC 13032
HLA-A*02:50 = assay: as above; settings: source organism: Corynebacterium glutamicum ATCC 13032
HLA-A*02:06 = assay: as above; settings: source organism: Corynebacterium glutamicum ATCC 13032
[15] = source organism: Camelpox virus CMS
[16] = source organism: Vibrio cholerae
[17] = source organism: Marburg virus - Musoke, Kenya, 1980
[18] = source organism: Ravn virus - Ravn, Kenya, 1987
[19] = source organism: dengue virus type 3
[20] = source organism: Corynebacterium glutamicum

REVFYFGKF
Kd (HLA-B*58:01; [15]): ≥ 20 µM | Kd (HLA-A*02:01 [1]; [15]): ≥ 20 µM | Kd (HLA-A*26:03): ≥ 20 µM | Kd (HLA-B*07:02; [15]): ≥ 20 µM | Kd (HLA-A*69:01; [15]): ≥ 20 µM | Kd (HLA-A*31:01 [2]; [15]): ≥ 20 µM | Kd (HLA-B*27:05; [15]): ≥ 20 µM | Kd (HLA-B*18:01; [15]): 0.813 µM | Kd (HLA-B*40:01; [15]): 0.0617 µM | Kd (HLA-B*57:01 [3]; [15]): ≥ 20 µM | Kd (HLA-B*44:02): ≥ 20 µM | Kd (HLA-A*01:01; [15]): ≥ 20 µM | Kd (HLA-A*11:01 [4]; [15]): ≥ 20 µM | Kd (HLA-B*48:01; [15]): ≥ 20 µM | Kd (HLA-A*26:02): 2.35 µM | Kd (HLA-A*68:02 [5]): 3.04 µM | Kd (HLA-B*15:17 [6]): ≥ 20 µM

FPLTQRDVL
Kd (HLA-B*58:01; [16]): ≥ 20 µM | Kd (HLA-A*02:01 [1]; [16]): ≥ 20 µM | Kd (HLA-B*07:02; [16]): 0.046 µM | Kd (HLA-A*69:01; [16]): 0.719 µM | Kd (HLA-A*31:01 [2]; [16]): ≥ 20 µM | Kd (HLA-B*27:05; [16]): ≥ 20 µM | Kd (HLA-B*18:01; [16]): 1.9 µM | Kd (HLA-B*40:01; [16]): ≥ 20 µM | Kd (HLA-B*57:01 [3]; [16]): ≥ 20 µM | Kd (HLA-B*08:02): ≥ 20 µM | Kd (HLA-A*01:01; [16]): ≥ 20 µM | Kd (HLA-A*11:01 [4]; [16]): ≥ 20 µM | Kd (HLA-A*03:01; [16]): ≥ 20 µM | Kd (HLA-B*48:01; [16]): ≥ 20 µM | Kd (HLA-B*15:17 [7]; [16]): ≥ 20 µM | Kd (HLA-B*15:01; [16]): ≥ 20 µM | Kd (HLA-B*46:01; [16]): ≥ 20 µM | Kd (HLA-B*51:01): 2.82 µM | Kd (HLA-B*15:09): 0.358 µM | Kd (HLA-B*39:01): 0.0144 µM

ALFHKVQSY
Kd (HLA-B*58:01; [17]): ≥ 20 µM | Kd (HLA-B*15:02; [18]): 0.038 µM | Kd (HLA-A*68:02 [8]): ≥ 20 µM | Kd (HLA-B*07:02; [17]): ≥ 20 µM | Kd (HLA-A*69:01; [17]): ≥ 20 µM | Kd (HLA-B*27:05; [17]): ≥ 20 µM | Kd (HLA-B*57:01 [3]; [17]): ≥ 20 µM | Kd (HLA-A*01:01; [17]): ≥ 20 µM | Kd (HLA-B*08:01; [18]): ≥ 20 µM | Kd (HLA-B*48:01; [17]): ≥ 20 µM | Kd (HLA-B*15:17 [7]; [17]): 0.0046 µM | Kd (HLA-B*15:01; [17]): 0.0205 µM | Kd (HLA-B*46:01; [17]): ≥ 20 µM | Kd (HLA-A*02:01 [9]): 1.31 µM | Kd (HLA-A*26:01 [10]): 1.14 µM | Kd (HLA-A*31:01 [11]): 3.92 µM | Kd (HLA-A*02:03; source organism: Orthomarburgvirus marburgense): 1.56 µM | Kd (HLA-A*11:01 [12]): 1.94 µM | Kd (HLA-A*30:01): 0.438 µM

STIRLLTSL
IC50 (HLA-B*57:01 [13]): 0.853 µM

KQIANELNY
Kd (HLA-B*15:02; [19]): ≥ 20 µM | Kd (HLA-B*46:01; [19]): ≥ 20 µM | Kd (HLA-A*30:02): ≥ 76.9 µM

NEAWGKKPV
Kd (HLA-B*73:01): ≥ 20 µM

FLPGQYMNI
Kd (HLA-B*58:01; [20]): ≥ 20 µM | Kd (HLA-A*02:01 [1]; [20]): 0.0728 µM | Kd (HLA-A*26:01 [14]): ≥ 20 µM | Kd (HLA-B*07:02; [20]): ≥ 20 µM | Kd (HLA-A*69:01; [20]): 0.404 µM | Kd (HLA-A*31:01 [2]; [20]): ≥ 20 µM | Kd (HLA-B*27:05; [20]): ≥ 20 µM | Kd (HLA-B*40:01; [20]): ≥ 20 µM | Kd (HLA-A*01:01; [20]): ≥ 20 µM | Kd (HLA-A*11:01 [4]; [20]): ≥ 20 µM | Kd (HLA-B*08:01; [20]): ≥ 20 µM | Kd (HLA-A*03:01; [20]): ≥ 20 µM | Kd (HLA-B*15:01; [20]): ≥ 20 µM | Kd (HLA-A*02:12): ≤ 0.0001 µM | Kd (HLA-A*02:11): ≤ 0.0001 µM | Kd (HLA-A*02:03; source organism: Corynebacterium glutamicum ATCC 13032): ≤ 0.0001 µM | Kd (HLA-A*02:50): ≤ 0.0001 µM | Kd (HLA-A*02:06): ≤ 0.0001 µM
